The experiment concerns the target human ER membrane protein complex (EMC) with EMC2-3xFlag and EMC5-Twin-Strep (human (endogenous in Expi293F) | human) (UniProt Q8N766). The experiment in a line: cryo-EM structure; VDAC1-bound class of the purified human EMC sample in digitonin (complex co-purified from cells), single-particle cryo-EM, 3.32 Å.
Chain of UniProt Q8N766 (Q8N766 whole entry, looked up, one chain of several): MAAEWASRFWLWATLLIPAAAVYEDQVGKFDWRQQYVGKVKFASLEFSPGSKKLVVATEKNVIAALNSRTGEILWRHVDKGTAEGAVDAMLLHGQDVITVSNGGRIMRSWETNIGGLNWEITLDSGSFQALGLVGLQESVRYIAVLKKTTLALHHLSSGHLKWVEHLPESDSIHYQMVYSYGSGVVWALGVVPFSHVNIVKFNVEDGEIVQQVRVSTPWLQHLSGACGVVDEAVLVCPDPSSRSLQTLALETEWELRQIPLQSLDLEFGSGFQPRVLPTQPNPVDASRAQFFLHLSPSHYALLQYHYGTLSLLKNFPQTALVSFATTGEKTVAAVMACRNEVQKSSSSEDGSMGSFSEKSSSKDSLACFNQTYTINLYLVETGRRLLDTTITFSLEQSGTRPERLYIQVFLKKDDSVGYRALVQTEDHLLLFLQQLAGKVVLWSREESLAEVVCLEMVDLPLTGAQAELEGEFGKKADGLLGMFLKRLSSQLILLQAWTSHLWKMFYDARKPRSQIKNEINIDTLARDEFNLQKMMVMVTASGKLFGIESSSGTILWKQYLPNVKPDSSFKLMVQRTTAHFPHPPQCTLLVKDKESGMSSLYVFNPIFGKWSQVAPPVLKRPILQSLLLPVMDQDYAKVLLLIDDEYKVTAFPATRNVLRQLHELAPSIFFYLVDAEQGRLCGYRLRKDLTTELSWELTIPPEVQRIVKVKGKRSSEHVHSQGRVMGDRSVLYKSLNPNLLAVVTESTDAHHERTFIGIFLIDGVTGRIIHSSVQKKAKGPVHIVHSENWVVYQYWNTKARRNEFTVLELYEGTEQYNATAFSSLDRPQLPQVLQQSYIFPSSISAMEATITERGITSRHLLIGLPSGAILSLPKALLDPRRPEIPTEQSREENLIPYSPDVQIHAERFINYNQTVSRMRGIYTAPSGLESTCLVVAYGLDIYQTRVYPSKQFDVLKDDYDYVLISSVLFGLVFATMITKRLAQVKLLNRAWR

What is called stoichiometry N is the number of molecules, sites or subunits per partner or assembly. The substance “voltage-dependent anion channel 1 (VDAC1), endogenous (from UniProt P21796 1-283) (natural protein)” gave a stoichiometry N of 1.

The values are drawn from publication PMC11006472.
